Experimental data as given in publication PMC8864165, “Functional Effects of ARV-1502 Analogs Against Bacterial Hsp70 and Implications for Antimicrobial Activity” (Frontiers in Chemistry, 2022).

B1: unnamed (parent)
chain 1: RPDKPRPYLPRPRPPRPVR
chain 2: not shown

Variants of: B1
Assay: competitive fluorescence polarization
Conditions: with partner chain of the complex shown; S. aureus DnaK 16 µmol/L; unlabeled peptide 35 µmol/L
With chain 1 D3S K4S Y8L the ratio to parent was under 1.
chain 1 D3F K4F P10S was tested, and the ratio to parent was under 1.
chain 1 D3F K4F P10D showed a ratio to parent of under 1.
chain 1 D3F K4F R11L was tested, and the ratio to parent was under 1.
In the case of chain 1 D3F K4F R11F, the ratio to parent is reported as under 1.
In the case of chain 1 Y8L, the ratio to parent is reported as under 1.
chain 1 D3K K4F showed a ratio to parent of under 1.
Work on chain 1 D3K K4L yielded a ratio to parent of under 1.
chain 1 D3K K4S was tested, and the ratio to parent was under 1.
Work on chain 1 D3K R11L yielded a ratio to parent of under 1.
Variant chain 1 D3S K4S R11L has a ratio to parent of under 1.
